Values quoted from earlier work in PMC8594252.

Target: HSPE1 (Homo sapiens) (UniProt P61604)

Kd: 3 µM
Substance: HSPE1 (from UniProt P61604)
